Molecular target: β5 integrin (human, ITGB5) (human)
Assay: cell-based or functional assay

anti-β5 integrin subunit monoclonal antibody KN52 (eBiosciences)
% Inhibition of cell growth, SKBr3 cells, SRB assay, 5 days, antibody alone at 0.08 µg/ml (trastuzumab 0): 30% | % Inhibition of cell growth, SKBr3 cells, SRB assay, 5 days, antibody alone at 0.4 µg/ml (trastuzumab 0): 43.7% | % Inhibition of cell growth, SKBr3 cells, SRB assay, 5 days, antibody alone at 2 µg/ml (trastuzumab 0): 52.6% | % Inhibition of cell growth, SKBr3 cells, SRB assay, 5 days, antibody alone at 10 µg/ml (trastuzumab 0): 71.5% | % Inhibition of cell growth, SKBr3 cells, SRB assay, 5 days, antibody alone at 50 µg/ml (trastuzumab 0): 76.2% | Inhibition of cell proliferation, 184-A1 (normal breast cell line), 10 µg/ml, 4 days, vs isotype control: 0% | Inhibition of cell proliferation, 231 (breast), 10 µg/ml, 4 days, vs isotype control: 23% | Inhibition of cell proliferation, 435 (breast), 10 µg/ml, 4 days, vs isotype control: 33.7% | Inhibition of cell proliferation, 453 (breast), 10 µg/ml, 4 days, vs isotype control: 24.9% | Inhibition of cell proliferation, 468 (breast), 10 µg/ml, 4 days, vs isotype control: 44.3% | Inhibition of cell proliferation, A172 (brain), 10 µg/ml, 4 days, vs isotype control: 90% | Inhibition of cell proliferation, A549 (lung), 10 µg/ml, 4 days, vs isotype control: 60 to 80% | Inhibition of cell proliferation, BT-474 (breast), 10 µg/ml, 4 days, vs isotype control: 0% | Inhibition of cell proliferation, CaoV3 (ovary), 10 µg/ml, 4 days, vs isotype control: 45.9% | Inhibition of cell proliferation, Colo205 (colon), 10 µg/ml, 4 days, vs isotype control: 27.2% | Inhibition of cell proliferation, Du145 (prostate), 10 µg/ml, 4 days, vs isotype control: 17.1% | Inhibition of cell proliferation, Du-4475 (breast), 10 µg/ml, 4 days, vs isotype control: 2.13% | Inhibition of cell proliferation, H358 (lung), 10 µg/ml, 4 days, vs isotype control: 30.1% | Inhibition of cell proliferation, H460 (lung), 10 µg/ml, 4 days, vs isotype control: 39.7% | Inhibition of cell proliferation, HCC-1419 (breast), 10 µg/ml, 4 days, vs isotype control: 20.9% | Inhibition of cell proliferation, HCC-1954 (breast), 10 µg/ml, 4 days, vs isotype control: 39.3% | Inhibition of cell proliferation, HCT8 (colon), 10 µg/ml, 4 days, vs isotype control: 33% | Inhibition of cell proliferation, HCT15 (colon), 10 µg/ml, 4 days, vs isotype control: 58.7% | Inhibition of cell proliferation, HMEC C (normal human mammary epithelial cells), 10 µg/ml, 4 days, vs isotype control: 0% | Inhibition of cell proliferation, MCF7 (breast), 10 µg/ml, 4 days, vs isotype control: 49.1% | Inhibition of cell proliferation, PC3 (prostate), 10 µg/ml, 4 days, vs isotype control: 11.2% | Inhibition of cell proliferation, SK-N-SH (brain), 10 µg/ml, 4 days, vs isotype control: 40% | Inhibition of cell proliferation, SKBr3 (breast), 10 µg/ml, 4 days, vs isotype control: 26.2% | Inhibition of cell proliferation, SW480 (colon), 10 µg/ml, 4 days, vs isotype control: 30.2% | Inhibition of cell proliferation, SW620 (colon), 10 µg/ml, 4 days, vs isotype control: 48.5% | Inhibition of cell proliferation, SW626 (ovary), 10 µg/ml, 4 days, vs isotype control: 29.7% | Inhibition of cell proliferation, SW1783 (listed under colon), 10 µg/ml, 4 days, vs isotype control: 26.6% | Inhibition of cell proliferation, Skov3 (ovary), 10 µg/ml, 4 days, vs isotype control: 15.1% | Inhibition of cell proliferation, T47D (breast), 10 µg/ml, 4 days, vs isotype control: 30.9%
